# T1: interferon-alpha receptor (type I interferon receptor comprising receptor subunits IFNAR-2 and IFNAR-1) (human, UniProt P17181 28-557; P48551 27-515)
# T1 sequence (looked up) 1: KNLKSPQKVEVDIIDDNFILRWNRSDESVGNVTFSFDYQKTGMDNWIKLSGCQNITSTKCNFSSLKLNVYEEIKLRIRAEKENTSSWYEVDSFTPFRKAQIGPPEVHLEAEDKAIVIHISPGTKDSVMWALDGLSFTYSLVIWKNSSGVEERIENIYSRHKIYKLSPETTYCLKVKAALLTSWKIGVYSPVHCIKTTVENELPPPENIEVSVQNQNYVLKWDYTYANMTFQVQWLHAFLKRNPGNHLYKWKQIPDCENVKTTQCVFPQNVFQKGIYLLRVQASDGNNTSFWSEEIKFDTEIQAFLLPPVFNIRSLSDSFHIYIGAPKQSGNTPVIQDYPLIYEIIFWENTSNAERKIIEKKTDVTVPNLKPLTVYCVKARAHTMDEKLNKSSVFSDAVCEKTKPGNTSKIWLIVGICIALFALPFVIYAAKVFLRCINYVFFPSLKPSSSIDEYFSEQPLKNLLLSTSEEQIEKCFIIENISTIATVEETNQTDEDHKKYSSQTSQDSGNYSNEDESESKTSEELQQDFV
# T1 sequence (looked up) 2: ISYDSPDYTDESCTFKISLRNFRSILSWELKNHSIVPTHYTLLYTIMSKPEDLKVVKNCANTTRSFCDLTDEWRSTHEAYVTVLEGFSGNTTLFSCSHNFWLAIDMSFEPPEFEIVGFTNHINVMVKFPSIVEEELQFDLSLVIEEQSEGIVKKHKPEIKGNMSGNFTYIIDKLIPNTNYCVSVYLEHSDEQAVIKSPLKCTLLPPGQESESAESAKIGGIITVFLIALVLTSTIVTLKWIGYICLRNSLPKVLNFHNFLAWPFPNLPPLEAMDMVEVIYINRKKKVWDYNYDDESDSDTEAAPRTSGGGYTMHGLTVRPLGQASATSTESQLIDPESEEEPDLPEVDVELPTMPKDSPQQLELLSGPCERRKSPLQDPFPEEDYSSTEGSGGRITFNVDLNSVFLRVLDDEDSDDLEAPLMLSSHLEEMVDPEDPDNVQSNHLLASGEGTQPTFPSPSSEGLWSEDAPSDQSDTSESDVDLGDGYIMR
# Biological target: T1, interferon-alpha receptor (type I …)
# Experiment: cell-based or functional assay
binder,measurement,value
"MonoPEGylated 25epi19 (ligand, single 40 kDa branched PEG (mPEG2-NHS) on a lysine; positional isomers predominantly monoPEGylated at Lys31, Lys122 and Lys135) MCDLPQTHSLSNRRTLMLMAQMRRISPFSCLKDRHDFGFPEEEFDGHQAQKVQAIFLLYELIQQTFNLFSTKDSSAAWDETLLEKFYIELFQQMNNLEACVIQEVGVEEIALMNVDSILAVRKYFRRITLYLTEKKYSPCAWEVVRAEIMRSFSFSTNLQESLRSKE","HeLa-EMCV antiviral assay, antiviral activity relative to monoPEGylated IFN-alpha 2a",> 10 fold

# Reference: patent US20050266465A1 (MAXYGEN, published 2005)
